Results reported in US20200087394A1.

Target: CD16 receptor on Jurkat-hCD16aF cells (human) (UniProt P08637)
Assay: cell-based or functional assay

Chain of CD16 receptor on Jurkat-hCD16aF cells (human) (P08637 17-254): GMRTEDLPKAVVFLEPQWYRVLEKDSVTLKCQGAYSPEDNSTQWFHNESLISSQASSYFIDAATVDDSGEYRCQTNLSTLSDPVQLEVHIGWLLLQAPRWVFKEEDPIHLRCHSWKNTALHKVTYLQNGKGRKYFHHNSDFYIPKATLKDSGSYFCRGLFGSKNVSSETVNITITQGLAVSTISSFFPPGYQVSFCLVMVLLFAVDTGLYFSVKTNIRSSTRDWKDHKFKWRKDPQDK

quantity of antibody required to induce 1000 pg of IL-2 from Jurkat-hCD16aF cells with PD-L1 aAPC/CHO-K1 target cells (ng per 1000 pg of IL-2)	Substance
> 1250	Anti-PDL1|durvalumab|Fc-WT (CHOs) (from UniProt P01857 1-330) (antibody)
> 1250	Anti-PDL1|atezolizumab|Fc-WT (CHOs) (from UniProt P01857 1-330) (antibody)
